Positions count from the first letter of the chain named.
B1: NBX0207 (VHH)
VHH: QVQLQESGGGLVQAGKSLRLSCAASTAILSIDSMGWNRQAVGNQRELVAVIARGGSTKYADSVKGRFTITRDISKNTIYLQMNSLKPEDTGVYYCAADPGGASPLSWGQGTQVTVSL
notes: also called Clone 104
B2: NBX0209 (VHH)
VHH: QVQLQESGGGLVQAGGSLRLSCAASGFTFSSSIMAWYRQAPGKQREAIASIPSFGSAVYADSVKDRFTISRDNNKNMVYLQMNSLKPEDTAVYYCNTRLYWGQGTQVTVSS
notes: also called Clone 106
B3: NBX0211 (VHH)
VHH: B2 VHH with S31T, S32N, M34L, P52T, S53P, D61N, Y94S, R98Q, S111T
notes: also called Clone 108
B4: NBX0215 (VHH)
VHH: B2 VHH with S32A, N83D, S111T
notes: also called Clone 112
B5: NBX0105 (VHH)
VHH: QVQLVESGGGLVQAGGSLRLSCAASGRTFNTYYMGWFRQAPGKEREFVSAIRWSDGGTWYADSMKGRFTISRDNAKNTGYLQMNSLKPEDTAIYYCNANVYDGNRWRTYWGQGTQVTVSS
notes: also called Clone 94
B6: NBX0228 (VHH)
VHH: QVQLQESGGGLVQAGGSLRLSCAASGIDSSFYVMAWYRQAPGQQRELVASISMTSADSPRYADFVKGRFTISRDNAKSTVYLQMNSLKPEDTAVYYCYGLYRQVHWGQGTQVTVSS
notes: also called Clone 125
B7: NBX0210 (VHH)
VHH: QVQLQESGGGLVQAGGSLRLACTASGDISSISVMGWNRQAPGKQQRELVAAIASGGSVKYADSVKGRFTISRDNTKNTVYLQMNSVNAEDTAVYYCAVDTGSPRLTWGQGTQVTVSS
notes: also called Clone 107
B8: NBX0208 (VHH)
VHH: QVQLQESGGGMVQAGGSLRLACTASGDISTIDVMGWNRQAPGKHRELVAIIARGGTIKYADSVKGRFTISRDNTKNTVTVYLQMNNVNAEDTAVYYCAVDTGSPRLTWGQGTQVTVSS
notes: also called Clone 105
B9: NBX0230 (VHH)
VHH: QVQLQESGGGSVQAGGSLRLSCAASARTLSNYAMGWFRQAPGKEREFVATISRSGGSIHYADSVKGRFTISRDNAKNTVNLQMNSLKVEDTAVYYCGRARGTGYAYTALNQYDYDYWGQGTQVTVSS
notes: also called Clone 127
B10: NBX0234 (VHH)
VHH: B9 VHH with S11L, A26G, L29F, N31T, G56D, S57N, H59Y, N80S, Y106H
notes: also called Clone 131
B11: NBX0108 (VHH)
VHH: QVKLEESGGGLVRAGGSLTLSCGASRGTFRTYSMGWFRQAPGKEREFVAAITWNGKYTYYGDSVQGRFTISKDNAKNTVSLQMNRLNPEDTAVYYCAANPIPTAQPPGIMAARSYVHWGQGTQVTVSS
notes: also called Clone 95
B12: NBX0100 (VHH)
VHH: QVKLEESGGGLVQAGGSLRLSCAVSGSIFSTNLMGWYRQAPGKQRGFVAHITSGGNTDYLDSVKGRFTISRDNAKNTVYLQMNSLKPEDTAVYYCAAQTLGSSYYDAWGQGTQVTVSS
notes: also called Clone 92
B13: NBX0221 (VHH)
VHH: QVQLQESGGGLVQAGGSLRLSCAASGLTFNNYAMGWFRQAPGKEREFVATISRDGTNTRYADSVKGRFTISRDNAKNTVDLQMNSLKPEDTAVYYCGVGRGTGYAYTAINEYDYSKWGQGTQVTVSS
notes: also called Clone 118
B14: NBX0232 (VHH)
VHH: B13 VHH with N30H, R59H, T102S
notes: also called Clone 129
B15: NBX0236 (VHH)
VHH: B13 VHH with D80N, N110R, Y112H, K116S
notes: also called Clone 133
B16: NBX0227 (VHH)
VHH: B13 VHH with S21A, N57S, D80N, S85R, T102S, T107S, K116S
notes: also called Clone 124
B17: NBX0216 (VHH)
VHH: QVQLQESGGGLVQAGGSLRLSCAASTSILSIDAMGWNRQAPGNQRRDLVAVIARGGSTQYADSVKGRFTITRDISKNTIYLQMNSLKPEYTGVYYCAADPGGASGLSWGQGTQVTVSL
notes: also called Clone 113
B18: NBX0214 (VHH)
VHH: QVQLQESGGGLVQAGGSLRLSCAASGSISSITAMGWNRQAPGNQQRDLVAVIARGGMTKYADSVQGRFTISRDIAKNTVYLQMNSLKPEDTGVYYCALDNGDPRLHWGQGIQVTVSS
notes: also called Clone 111
B19: NBX0217 (VHH)
VHH: B18 VHH with K76N, D99Y
notes: also called Clone 114
B20: NBX0104 (VHH)
VHH: QVQLVESGGGLVQPGGSLRLSCAASGVAFNSRIMGWYRQAPGKQRELVALITSGGSTNYADSVKGRFTISRNNAKKTVYLQMNSLKPEDTAVYYCNIRNYWGQGTQVTVSS
notes: also called Clone 93
B21: NBX0219 (VHH)
VHH: QVQLQESGGGLVQPGGSLSLSCTASGSAFSGGDAMGWYRRAPGKQREFVAGISSGGIANYMDSVKGRFTISRDNAKKAVYLQMTSLKPEDTALYYCNSITAVLRGNSGWGQGTQVTVSS
notes: also called Clone 116
B22: NBX0218 (VHH)
VHH: QVQLQESGGGLVQAGGSLSLSCTASGSAFSGDAMGWYRRAPGKQREFVAGISSGAITNYMDSVKGRFTISRDNAKNTVYLQMTKLKPEDTAVYYCNRIQAVLRGNSGWGQGTQVTVSS
notes: also called Clone 115
B23: NBX0220 (VHH)
VHH: QVQLQESGGGLVQAGGSLTLSCTASGSAFSGDAMGWYRRAPGKEREFVAGISSGGIPNYMGSVQGRFTISRDNAKNTVYLQMRRLKPEDTAVYYCNSISAVLRGNGVWGQGTQVTVSS
notes: also called Clone 117
B24: NBX0233 (VHH)
VHH: B22 VHH with E46D, A55H, R97S, Q99T
notes: also called Clone 130
B25: NBX0235 (VHH)
VHH: B22 VHH with T23R, A24V, A55G, T57E, Q81R, T83S, K84S, R97L, Q99K
notes: also called Clone 132
B26: NBX0231 (VHH)
VHH: B22 VHH with S19T, A24T, K43Q, Q44E, A55G, D61N, S62F, K84S, R97S, Q99K
notes: also called Clone 128
B27: NBX0213 (VHH)
VHH: QVQLQESGGGSVQAGGSLRLSCAASGSISSITAMGWNRQAPGNQRELVAVIARGGMIKYDDSVKGRFTISRDIAKNTVFLQMDSLKPEDTGVYYCAVDNGDPRLHWGQGIQVTVSS
notes: also called Clone 110
B28: NBX0224 (VHH)
VHH: QVQLQQSGGGLVQAGGSLRLSCAASGLTFSSYAMGWFRQAPGKEREFIVAIGWSGGSTYYADSVKGRFTISRDNAKNTVYLHMNSLKPEDTAVYYCAARRTTAWGKGTDYWGQGTQVTVSS
notes: also called Clone 121
B29: NBX0222 (VHH)
VHH: QVQLQESGGGLVQAGGSLRLSCAASGIDSSFYVMAWYRQAPGKQRELVASLGTPDSATYADFVKGRFIISRDNAKSTVYLQMNSLKPEDTAVYYCYGLYRQVYWGQGTQVTVSS
notes: also called Clone 119
B30: NBX0229 (VHH)
VHH: QVQLQESGGGLVQAGGSLRLSCAASGSGILFRISAMGWYRQAPGKERDLVAGISSGGSTNYADSVKGRFTISRDNAKNTVYLQMNSLKPEDTAVYYCNIVGRTDSWGQGTQVTVSS
notes: also called Clone 126
B31: NBX0223 (VHH)
VHH: QVQLQESGGGLVQAGGSLRLSCVASGIDSSFYVMAWYRQAPGKQRELVASISSADSPRYEDFVKGRFTISRDNGKNTVYLQMNSLKPEDTAVYYCYGLYRQVHWGQGTQVTVSS
notes: also called Clone 120
B32: NBX0226 (VHH)
VHH: B31 VHH with V23A, D28T, F31L, S50H, S52N, A54G, E60A, K64Q
notes: also called Clone 123
B33: NBX0212 (VHH)
VHH: QVQLQESGGGLVQAGGSLRLSCAASTSILSINAMGWNREAPGNRREMVAIIAPGGTTNYADSVKGRFTITRDISKNTIYLQMNNLKPEDTGVYYCAADPGGQSPLSWGQGTQVTVSL
notes: also called Clone 109
B34: NBX0200 (VHH)
VHH: QVQLQESGGGLVQAGGSLRLSCAASGRTSSSAYTAWFRQAPGNEREFVASISWSGTTTYYADPVKGRFTISRDNAKNTVYLQMNSLKPDDTAVYYCAADRRSTIGSPRQQYAYWGQGTQVTVSS
notes: also called Clone 97

Columns and labels:
Test in all cases: phage ELISA, antigen-coated wells, anti-M13-HRP, A405
[1] = biological target: T1, PrgI (Salmonella Type III secretion needle protein), recombinant (Salmonella typhimurium (strain LT2) as …, UniProt P41784 1-80)
T1 sequence: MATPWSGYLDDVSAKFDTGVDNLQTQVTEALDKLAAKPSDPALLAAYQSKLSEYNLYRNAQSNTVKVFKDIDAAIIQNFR

PrgI-SipD = biological target: T2, PrgI-SipD
T2 construct: also called PrgI-SipD fusion
T2 chain: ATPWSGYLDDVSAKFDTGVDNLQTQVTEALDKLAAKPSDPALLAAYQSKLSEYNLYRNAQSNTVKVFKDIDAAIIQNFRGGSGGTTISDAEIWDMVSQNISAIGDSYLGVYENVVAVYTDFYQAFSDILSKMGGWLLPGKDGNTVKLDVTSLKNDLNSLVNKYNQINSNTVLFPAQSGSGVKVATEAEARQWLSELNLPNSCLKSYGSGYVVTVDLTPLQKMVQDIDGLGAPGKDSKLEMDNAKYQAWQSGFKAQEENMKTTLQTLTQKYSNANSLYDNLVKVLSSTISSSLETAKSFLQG

[2] = biological target: T3, FimA (Salmonella Type-1 fimbrial protein, A chain), recombinant (Salmonella (serovar ), UniProt P37921 23-185)
T3 sequence: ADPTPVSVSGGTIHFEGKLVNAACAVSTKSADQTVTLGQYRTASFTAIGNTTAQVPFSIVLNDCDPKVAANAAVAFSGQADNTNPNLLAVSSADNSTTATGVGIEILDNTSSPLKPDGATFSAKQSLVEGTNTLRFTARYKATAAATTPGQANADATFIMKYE

Row | Binder | binding over background (PBS-only wells) [1] [fold] | binding over background (PBS-only wells) (PrgI-SipD) [fold] | also measured
1 | B1 | ≥ 4 | – | –
2 | B2 | ≥ 4 | – | –
3 | B3 | ≥ 4 | – | –
4 | B4 | ≥ 4 | – | –
5 | B5 | ≥ 4 | – | –
6 | B6 | – | ≥ 4 | –
7 | B7 | ≥ 4 | – | –
8 | B8 | ≥ 4 | – | –
9 | B9 | – | ≥ 4 | –
10 | B10 | – | ≥ 4 | –
11 | B11 | ≥ 4 | – | –
12 | B12 | – | – | binding over background (PBS-only wells) [2]: ≥ 4 fold
13 | B13 | – | ≥ 4 | –
14 | B14 | – | ≥ 4 | –
15 | B15 | – | ≥ 4 | –
16 | B16 | – | ≥ 4 | –
17 | B17 | ≥ 4 | – | –

Row | Binder | binding over background (PBS-only wells) [1] [fold] | binding over background (PBS-only wells) (PrgI-SipD) [fold] | also measured
18 | B18 | ≥ 4 | – | –
19 | B19 | ≥ 4 | – | –
20 | B20 | ≥ 4 | – | –
21 | B21 | – | ≥ 4 | –
22 | B22 | – | ≥ 4 | –
23 | B23 | – | ≥ 4 | –
24 | B24 | – | ≥ 4 | –
25 | B25 | – | ≥ 4 | –
26 | B26 | – | ≥ 4 | –
27 | B27 | ≥ 4 | – | –
28 | B28 | – | ≥ 4 | –
29 | B29 | – | ≥ 4 | –
30 | B30 | – | ≥ 4 | –
31 | B31 | – | ≥ 4 | –
32 | B32 | – | ≥ 4 | –
33 | B33 | ≥ 4 | – | –
34 | B34 | – | – | binding over background (PBS-only wells) [2]: ≥ 4 fold

From patent US20190202896A1 (NOVOBIND LIVESTOCK THERAPEUTICS, published 2019)
